Results published in article PMC3501490 (2012).

Target: T1, G6B-b dual phosphopeptide pY211/pY237 (Homo sapiens, UniProt O95866, pY211+pY237)
T1 chain: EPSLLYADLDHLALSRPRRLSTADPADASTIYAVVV
Assay: SPR

Kd: 0.0353 µM
B1: SHP-1 tandem SH2 (protein)
chain: WFHRDLSGLDAETLLKGRGVHGSFLARPSRKNQGDFSLSVRVGDQVTHIRIQNSGDFYDLYGGEKFATLTELVEYYTQQQGVLQDRDGTIIHLKYPLNCSDPTSERWYHGHMSGGQAETLLQAKGEPWTFLVRESLSQPGDFVLSVLSDQPKAGPGSPLRVTHIKVMCEGGRYTVGGLETFDSLTDLVEHFKKTGIEEASGAFVYLRQPY
